Assay results from patent US20090181909.

How the values were obtained:
[1] = tested on: T1, D-AVP (D-(Arg8)-vasopressin, all-D peptide) (Homo sapiens); experiment: competition; settings: biotinylated D-AVP; selection buffer
T1 sequence: CYFQNCPRG

[2] = tested on: T2, L-AVP ((Arg8)-vasopressin) (Homo sapiens); experiment: ITC; settings: L-RNA, hexaethylene glycol (PEG) spacer between Helix 2 and Helix 1, 37 C, 20 mM Tris pH 7.4, 150 mM NaCl, 5 mM KCl, 1 mM MgCl2, 1 mM CaCl2
T2 sequence: CYFQNCPRG

L-oxytocin = molecular target: T3, L-oxytocin (UniProt P01178); experiment: ITC; settings: L-RNA; hexaethylene glycol (PEG) spacer between Helix 2 and Helix 1; 3'-C6-amino 40 kDa PEG; 37 C; same buffer; activity 69.8%; about ten times lower affinity than …
T3 sequence: CYIQNCPLG

Question: “AGUGUGCGUGGUUAAUAAUGGGGUAGGGCUUGGAUGGGUAGUACACU [CHF-157-B4 (CHF-F-000)]” was tested. Which Kd [1] did it give?
Answer: Its Kd is 9.5 nM.

Question: With “GGGGUAGGGCUUGGAUGGGUAGUACACGUGUGCGUGGU [CHF-F-037 spiegelmer]” as the sequence, how does the Kd ([2]; activity 46.8%) read?
Answer: The Kd was 1.7 nM.

Question: What does the source list for “GGGGUAGGGCUUGGAUGGGUAGUACACGUGUGCGUGGU [CHF-F-037-3'PEG spiegelmer]”?
Answer: Kd ([2]; 3'-C6-amino 40 kDa PEG, activity 59.1%): 1.3 nM; Kd (L-oxytocin): 16 nM
